Results reported in PMC10831263 (The Journal of Biological Chemistry, 2023).
Residue numbers refer to the chain shown, from its start. Names may count otherwise.

T1: GST-HERC2 (2540–2700th) (human, UniProt O95714 2540-2700)
T1 construct: also called HECT and RLD domains-containing E3 ubiquitin protein ligase 2; not shown: GST, N-terminal, kept
T1 sequence (looked up): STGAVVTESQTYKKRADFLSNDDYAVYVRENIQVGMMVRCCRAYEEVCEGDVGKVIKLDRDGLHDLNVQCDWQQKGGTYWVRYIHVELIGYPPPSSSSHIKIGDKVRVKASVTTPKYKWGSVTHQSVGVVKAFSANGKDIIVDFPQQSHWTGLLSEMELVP

B1: his-tagged NCOA4 (383–522nd) recombinant protein, WT (domain or fragment, human, UniProt Q13772-1 383-522, looked up)
chain: SMVTEDWLVQNHQDPCKVEEVCRANEPCTSFAECVCDENCEKEALYKWLLKKEGKDKNGMPVEPKPEPEKHKDSLNMWLCPRKEVIEQTKAPKAMTPSRIADSFQVIKNSPLSEWLIRPPYKEGSPKEVPGTEDRAGKQK
notes: Expressed from pQE80L; also called purified NCOA4; not shown: His6, N-terminal, kept
B2: his-tagged NCOA4 (383–522nd) 4C > A (domain or fragment, human, UniProt Q13772-1 383-522, looked up)
chain: B1 chain with C22A, C28A, C34A, C40A
notes: also called four cysteine residues substitution by alanine; not shown: His6, N-terminal, kept
B3: his-tagged NCOA4 (383–522nd) C398S (domain or fragment, human, UniProt Q13772-1 383-522, looked up)
chain: B1 chain with C16S
notes: C398A was insoluble, so C398S was made in its place
B4: his-tagged NCOA4 (383–522nd) C404A (domain or fragment, human, UniProt Q13772-1 383-522, looked up)
chain: B1 chain with C22A
B5: his-tagged NCOA4 (383–522nd) C410A (domain or fragment, human, UniProt Q13772-1 383-522, looked up)
chain: B1 chain with C28A
B6: his-tagged NCOA4 (383–522nd) C416A (domain or fragment, human, UniProt Q13772-1 383-522, looked up)
chain: B1 chain with C34A
B7: his-tagged NCOA4 (383–522nd) C418A (domain or fragment, human, UniProt Q13772-1 383-522, looked up)
chain: B1 chain with C36A
B8: his-tagged NCOA4 (383–522nd) C422A (domain or fragment, human, UniProt Q13772-1 383-522, looked up)
chain: B1 chain with C40A
B9: his-tagged NCOA4 (383–522nd) C462A (domain or fragment, human, UniProt Q13772-1 383-522, looked up)
chain: B1 chain with C80A

target: T2, GST-tagged FTH (human, UniProt P02794 1-183); assay: pull-down; His-pulldown; His-tagged NCOA4 (383–522nd) WT or mutants and GST-tagged FTH, each expressed in E. coli and purified; read by immunoblotting; conditions: both partners purified
T2 construct: ferritin heavy chain 1 (FTH), human; also called GST-FTH; ferritin heavy chain 1; not shown: GST, N-terminal, kept
T2 sequence (P02794 whole entry): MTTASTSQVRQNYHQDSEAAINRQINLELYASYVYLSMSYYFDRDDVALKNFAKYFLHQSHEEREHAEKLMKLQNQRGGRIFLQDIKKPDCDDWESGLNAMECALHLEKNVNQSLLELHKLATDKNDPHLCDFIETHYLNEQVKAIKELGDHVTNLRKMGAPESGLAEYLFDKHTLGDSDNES

Binding result, binds:
B1
B2

Target: the molecule itself
Assay: nonreducing gel electrophoresis; purified his-tagged NCOA4 (383–522nd) WT or mutants on a nonreducing gel, with or without β-ME (10 mM) or DTT (5 mM); the reductants converted the dimer into monomers
Conditions: not given

Binding result, binds:
B3
B4
B5
B6
B7
B8
B9

target: T1, GST-HERC2 (2540–2700th); assay: pull-down; GST pull-down of HERC2 with Fe-S-bound NCOA4 (383–522nd): freshly purified or reconstituted; conditions: both partners purified

Binding result, binds:
B1
